Measured values published in PMC2111872.

B1: chicken erythrocyte histone H5 (natural protein)
chain: MTESLVLSPAPAKPKRVKASRRSASHPTYSEMIAAAIRAEKSRGGSSRQSIQKYIKSHYKVGHNADLQIKLSIRRLLAAGVLKQTKGVGASGSFRLAKSDKAKRSPGKKKKAVRRSTSPKKAARPRKARSPAKKPKATARKARKKSRASPKKAKKPKTVKAKSRKASKAKKVKRSKPRAKSGARKSPKKK

Target: H1- and H5-depleted chicken erythrocyte chromatin (DNA-core histone complex) (chicken (endogenous in erythrocytes))
Assay: co-sedimentation

Stoichiometry N (linker histone molecules per nucleosome), 2:
chicken erythrocyte histone H1 (from UniProt P09987 1-218) (natural protein)
calf thymus histone H1 (from UniProt P02253 1-213) (natural protein)
B1
